According to article PMC11169420, “The kinase ZYG-1 phosphorylates the cartwheel protein SAS-5 to drive centriole assembly in C. elegans” (EMBO Reports, 2024):

B1: GST-ZYG-1 cryptic polo box (CPB) fragment spanning 338-564 (domain or fragment, C. elegans, UniProt Q9GT24 338-564, looked up)
chain: GTVPPSREDRNRSQLWPIRMDRLEGQRVCTAGGRYIVELDTRCRFEVAAQGNFVKRILIVEVDEMVQTVYVHRIPDRTVRGRNGEEELITLTNNPFVYTSYSQMPKEVQNDYMRLQKMVAVTISGRVAKVTFRRPSQFPDAQAQLMENGDLRIKLPRSVIVRKMDNGEIFNCIDGIATQKQAVSGITLTKVNEVYKYLIRFEQCLNGMDRGMVCFPIVFSAGTNMVG
notes: ZYG-1 of C. elegans, cryptic polo box (CPB), residues 338-564; also called ZYG-1 CPB; not shown: GST, N-terminal, kept; His6, C-terminal, kept
B2: GST-ZYG-1(1-250) K41M (kinase domain, C-terminal 6X-His) (domain or fragment, C. elegans, UniProt Q9GT24 1-250, looked up)
chain: MSGGKSGSRLSAYSHLKEIGKGGFGVVYAAQRENGEKVAIMRIDKKVPKNRVWTEIQTMKELKKSKYVVEFYEDFVEDGYTYIVMELCEGGSLQAYVREHGALDDATAVHVLRQLISAVSFMHRVNVIHRDLSAGNVFIKDSKKKKMTVKLGDFGLATTLGRGETTCTIVGTPGFIAPQVYDQEYTQSADVYSLGAVLYTMLTARNPPPKGLPPTCGMSPNAARLVEQMMDTDAKKRIPLTQIVLSEFMY
notes: ZYG-1 of C. elegans, kinase domain, residues 1-250, with K41M (used to reduce toxicity to E. coli); also called kinase domain (amino acids 1-250); not shown: GST, N-terminal, kept; His6, C-terminal, kept

Experiments:
SAS-6 head domain = SAS-6 head domain (UniProt Q6UVJ0); settings: cited from earlier work
[1] = target: T1, SAS-5::His6, full-length, refolded in vitro (C. elegans, UniProt Q20010 1-404, a glycine codon was introduced immediately next to initiator methionine); assay: pull-down; GST-ZYG-1 fragment baits (4.32 mM as printed) on magnetic glutathione beads, blocked with Odyssey blocking buffer; full-length SAS-5 prey (0.2 mM as printed) 1 h at 4 °C; washed with 50 mM Tris pH 8.0, 300 mM NaCl, 5 mM DTT; immunoblot with anti-GST and anti-SAS-5; GST alone as negative control; settings: both partners purified
T1 construct: SAS-5 of C. elegans, longer isoform SAS-5a, full length; codon-optimised gene in pET21b (NdeI/HindIII); a glycine codon was put next to the initiator methionine; Prey in the pull-downs with GST-ZYG-1 fragment baits; also called full-length SAS-5; SAS-5::6XHis; not shown: His6, C-terminal, kept
T1 sequence (looked up): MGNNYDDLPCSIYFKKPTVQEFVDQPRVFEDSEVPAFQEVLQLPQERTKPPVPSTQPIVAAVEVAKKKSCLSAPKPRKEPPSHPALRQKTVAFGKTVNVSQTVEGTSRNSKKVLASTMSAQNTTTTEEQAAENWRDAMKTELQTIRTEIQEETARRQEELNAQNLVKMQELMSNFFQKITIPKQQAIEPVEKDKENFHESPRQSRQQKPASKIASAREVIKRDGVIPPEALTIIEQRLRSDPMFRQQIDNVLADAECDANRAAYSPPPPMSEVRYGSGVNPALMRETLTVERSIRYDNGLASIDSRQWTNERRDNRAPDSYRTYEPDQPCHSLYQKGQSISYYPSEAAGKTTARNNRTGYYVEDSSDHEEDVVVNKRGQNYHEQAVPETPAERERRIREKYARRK

| Molecule | Kd (SAS-6 head domain) | binding result [1] |
| --- | --- | --- |
| SAS-6 head domain (from UniProt Q6UVJ0) | 75 µM | – |
| B1 | – | binds |
| B2 | – | binds |
